Source: patent US20190330625A1, “CONSEQUENCES OF A DEFECTIVE SWITCH IN CUTANEOUS SQUAMOUS CELL CARCINOMA” (AGENCY FOR SCIENCE, TECHNOLOGY AND RESEARCH, published 2019)

Assays:
[1] = biological target: T1, Wnt7a (UniProt O00755 32-349, limits assumed); assay: co-IP with anti-FSTL1 antibody or IgG control from A253 lysate, western blot for Wnt7a
T1 construct: Endogenous protein of the A253 (HNSCC) cell lysate
T1 sequence (looked up): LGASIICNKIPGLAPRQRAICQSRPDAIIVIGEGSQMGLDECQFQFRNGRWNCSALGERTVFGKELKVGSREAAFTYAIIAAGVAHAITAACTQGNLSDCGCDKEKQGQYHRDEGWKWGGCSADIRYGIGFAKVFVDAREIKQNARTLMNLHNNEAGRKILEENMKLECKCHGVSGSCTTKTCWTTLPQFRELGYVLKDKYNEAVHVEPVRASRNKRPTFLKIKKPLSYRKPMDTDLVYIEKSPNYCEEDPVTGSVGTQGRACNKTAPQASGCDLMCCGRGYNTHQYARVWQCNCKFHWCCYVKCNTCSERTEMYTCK

[2] = biological target: HuR (ELAVL1) (UniProt Q15717 Q15717:1-326); assay: EMSA; 0.2-0.6 uM HuR; 30 mM Tris pH 7.4, 5 mM MgCl2, 50 mM KCl, yeast tRNA, room temperature; sequence listed as DNA, assayed as RNA transcript; settings: pre-miRNA hairpin
Sequence of HuR (ELAVL1) (Q15717 whole entry, one chain of several): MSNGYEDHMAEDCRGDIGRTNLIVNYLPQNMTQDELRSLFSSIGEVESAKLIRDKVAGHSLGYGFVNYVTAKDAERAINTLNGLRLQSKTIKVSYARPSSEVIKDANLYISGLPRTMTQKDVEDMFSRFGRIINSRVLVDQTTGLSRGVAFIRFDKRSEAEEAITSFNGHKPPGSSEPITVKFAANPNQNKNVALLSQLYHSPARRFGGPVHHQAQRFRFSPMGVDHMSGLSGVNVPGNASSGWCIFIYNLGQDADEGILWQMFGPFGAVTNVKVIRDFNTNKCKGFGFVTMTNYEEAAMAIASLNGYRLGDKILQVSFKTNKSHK

B1: Follistatin-related protein 1 (FSTL1) (other)
chain: EEELRSKSKICANVFCGAGRECAVTEKGEPTCLCIEQCKPHKRPVCGSNGKTYLNHCELHRDACLTGSKIQVDYDGHCKEKKSVSPSASPVVCYQSNRDELRRRIIQWLEAEIIPDGWFSKGSNYSEILDKYFKNFDNGDSRLDSSEFLKFVEQNETAINITTYPDQENNKLLRGLCVDALIELSDENADWKLSFQEFLKCLNPSFNPPEKKCALEDETYADGAETEVDCNRCVCACGNWVCTAMTCDGKNQKGAQTQTEEEMTRYVQELQKHQETAEKTKRVSTKEI
notes: Endogenous secreted glycoprotein in A253 cell lysates, pulled down with the anti-FSTL1 antibody; also called follistatin-like-1
Q: Does B1 bind [1]?
A: binds

B2: pre-miR-198 WT (ssRNA)
RNA: UCAUUGGUCCAGAGGGGAGAUAGGUUCCUGUGAUUUUUCCUUCUUCUCUAUAGAAUAAAUGA
Q: Does B2 bind [2]?
A: binds
